From patent US20120058906A1 (published 2012)
One block for each binder: values may come before it.

Legend:
[1] = target: T1, rHuman EGF R/Fc Chimera, CF (R&D Systems Cat#344-ER) (human, UniProt P00533 25-645); assay: ECL (MSD multi-spot), antigen spotted on plate; Fab 705 nM; blank spot 483
T1 construct: Bought reagent; also called epidermal growth factor receptor; Fc part of the bought chimera not given

[2] = target: T2, rHuman P-Cadherin/Fc Chimera, CF (R&D Systems Cat#861-PC) (human, UniProt P22223 108-654); assay: as above
T2 construct: Bought reagent; also called CDH3; Fc part of the bought chimera not given

[3] = target: T3, rHuman Erythropoietin R/Fc Chimera, CF (R&D Systems Cat#963-ER) (human, UniProt P19235 25-250); assay: as above
T3 construct: Bought reagent; also called EPO R/Fc; Epo R; Fc part of the bought chimera not given
T3 sequence: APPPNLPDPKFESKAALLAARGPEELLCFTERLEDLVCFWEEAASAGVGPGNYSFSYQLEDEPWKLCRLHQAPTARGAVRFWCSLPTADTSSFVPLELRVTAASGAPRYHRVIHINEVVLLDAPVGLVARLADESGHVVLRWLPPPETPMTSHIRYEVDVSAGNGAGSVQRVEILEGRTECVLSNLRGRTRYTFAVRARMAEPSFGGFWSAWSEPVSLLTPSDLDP

[4] = target: T4, rHuman CD44/Fc Chimera, CF (R&D Systems Cat#3660-CD) (human, UniProt P16070 21-220); assay: as above
T4 construct: Bought reagent; Fc part of the bought chimera not given

[5] = target: T5, Recombinant Human DLL4 (R&D Systems Cat#1506-D4/CF) (human, UniProt Q9NR61 27-524); assay: as above
T5 construct: Bought reagent; also called delta-like protein 4

[6] = target: T6, rHuman ErbB2/Fc Chimera, CF (R&D Systems Cat#1129-ER) (human, UniProt P04626 23-652); assay: as above
T6 construct: Bought reagent; also called HER2/neu; human epidermal growth factor 2 receptor; Fc part of the bought chimera not given

[7] = target: T7, rHuman Notch-1/Fc Chimera, CF (R&D Systems Cat#3647-TK) (human, UniProt P46531 19-526); assay: as above
T7 construct: Bought reagent; Fc part of the bought chimera not given

[8] = target: T8, rHuman IGF-1 sR (IGF-1 sR), CF (R&D Systems Cat#391-GR) (human, UniProt P08069 31-932); assay: as above
T8 construct: Bought soluble receptor; also called insulin-like growth factor-1 soluble receptor; IGF-R1

[9] = target: T9, rHuman HGF R/c-MET/Fc Chimera, CF (R&D Systems Cat#358-MT/CF) (human, UniProt P08581 25-932); assay: as above
T9 construct: Bought reagent; also called HGF R/Fc; hepatocyte growth factor receptor; Fc part of the bought chimera not given

[10] = target: T10, rHuman ErbB2/Fc Chimera, CF (R&D Systems Cat#1129-ER) (human, UniProt P04626 23-652); assay: ECL (MSD multi-spot), antigen on plate, Fab 0.4 nM
T10 construct: Bought Fc chimera; also called HER2/neu; not shown: Fc of the bought chimera

[11] = target: T11, Recombinant Human DLL4 (R&D Systems Cat#1506-D4/CF) (human, UniProt Q9NR61 27-524); assay: ECL (MSD multi-spot), antigen on plate, Fab 0.4 nM
T11 construct: Bought recombinant protein; also called delta-like protein 4

[12] = target: T12, rHuman EGF R/Fc Chimera, CF (R&D Systems Cat#344-ER) (human, UniProt P00533 25-645); assay: ECL (MSD multi-spot), antigen on plate, Fab 0.4 nM
T12 construct: Bought Fc chimera; also called ErbB-1; not shown: Fc of the bought chimera

[13] = target: T13, rHuman P-Cadherin/Fc Chimera, CF (R&D Systems Cat#861-PC) (human, UniProt P22223 108-654); assay: ECL (MSD multi-spot), antigen on plate, Fab 0.4 nM
T13 construct: Bought Fc chimera; also called CDH3; not shown: Fc of the bought chimera

[14] = target: T14, rHuman CD44/Fc Chimera, CF (R&D Systems Cat#3660-CD) (human, UniProt P16070 21-220); assay: ECL (MSD multi-spot), antigen on plate, Fab 0.4 nM
T14 construct: Bought Fc chimera; not shown: Fc of the bought chimera

[15] = target: T15, rHuman Erythropoietin R/Fc Chimera, CF (R&D Systems Cat#963-ER) (human, UniProt P19235 25-250); assay: ECL (MSD multi-spot), antigen on plate, Fab 0.4 nM
T15 construct: Bought Fc chimera; also called EPO R/Fc; Epo R; not shown: Fc of the bought chimera
T15 sequence: T3 sequence

[16] = target: T16, rHuman IGF-1 sR (insulin-like growth factor-1 soluble receptor), CF (R&D Systems Cat#391-GR) (human, UniProt P08069 31-932); assay: ECL (MSD multi-spot), antigen on plate, Fab 0.4 nM
T16 construct: Bought soluble receptor; also called IGF-R1

[17] = target: T17, rHuman HGF R/c-MET/Fc Chimera, CF (R&D Systems Cat#358-MT/CF) (human, UniProt P08581 25-932); assay: ECL (MSD multi-spot), antigen on plate, Fab 0.4 nM
T17 construct: Bought Fc chimera; also called HGF R/Fc; not shown: Fc of the bought chimera

[18] = target: T18, rHuman Notch-1/Fc Chimera, CF (R&D Systems Cat#3647-TK) (human, UniProt P46531 19-526); assay: ECL (MSD multi-spot), antigen on plate, Fab 0.4 nM
T18 construct: Bought Fc chimera; not shown: Fc of the bought chimera
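Note: blank spot per well as comparator with Hit at signal to blank ratio of 4 or more.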

- ECL signal [1]: 692
- ECL signal [2]: 827
- ECL signal [3]: 4890
- ECL signal [4]: 693
- ECL signal [5]: 981
- ECL signal [6]: 671
- ECL signal [7]: 958
- ECL signal [8]: 630
- ECL signal [9]: 839
B1: Fab VH1-46_IGHD3-10*01_IGHJ4*01 & B3_IGKJ1*01 (Fab, V domains shown)
VH: QVQLVQSGAEVKKPGASVKVSCKASGYTFTSYYMHWVRQAPGQGLEWMGIINPSGGSTSYAQKFQGRVTMTRDTSTSTVYMELSSLRSEDTAVYYCAREYYYGSGSYYNDYFDYWGQGTLVTVSS
VL: not shown
notes: also called IGHV1-46*01

- ECL signal [10]: 159 ECL signal
- ECL signal [11]: 1260 ECL signal
- ECL signal [12]: 175 ECL signal
- ECL signal [13]: 151 ECL signal
- ECL signal [14]: 190 ECL signal
- ECL signal [15]: 217 ECL signal
- ECL signal [16]: 65 ECL signal
- ECL signal [17]: 119 ECL signal
- ECL signal [18]: 197 ECL signal
B2: Fab VH1-46_IGHD6-6*01_IGHJ1*01_S102A_S103P_S104F & L6_IGKJ1*01_S31K (Fab, V domains shown)
VH: QVQLVQSGAEVKKPGASVKVSCKASGYTFTSYYMHWVRQAPGQGLEWMGIINPSGGSTSYAQKFQGRVTMTRDTSTSTVYMELSSLRSEDTAVYYCAREEYAPFSAEYFQHWGQGTLVTVSS
VL: EIVLTQSPATLSLSPGERATLSCRASQSVSKYLAWYQQKPGQAPRLLIYDASNRATGIPARFSGSGSGTDFTLTISSLEPEDFAVYYCQQRSNWPPWTFGQGTKVEIKR
notes: Fab
